Results on eleven substances are retold here after patent publication US12084522B2, “Peptides, combination of peptides, and cell based medicaments for use in immunotherapy against urinary bladder cancer and other cancers” (Immatics Biotechnologies GmbH, priority 2016, dated 2024).

One assay addresses HLA-A*02:01 (Homo sapiens, UniProt P04439, D140Y/D185E/D98H/E176V/E277Q/G131W/G231S/I119V/I121R/I166T/I218V/L300P/L318F/N151K/N90K/P208A/P217A/Q86G/Q94H/R138H/R169H/T345S). Briefly: MHC binding assay (UV-ligand exchange, β2m ELISA, peptide exchange yield). To be noted: binding to HLA-A*02:01 ranged by peptide exchange yield (UV-ligand exchange, β2m ELISA).
Assay [1] relates to CD8+ T cells from healthy HLA-A*02 donors. As to the kind of experiment: In vitro immunogenicity: priming of CD8+ T cells with aAPCs loaded with peptide/MHC complexes and anti-CD28, pMHC multimer readout. In kind it is cell-based, human. To be noted: HLA-A*02 restricted peptides, positive wells among evaluable, Table 10B. The source says:
In order to obtain information regarding the immunogenicity of the TUMAPs of the present invention, the inventors performed investigations using an in vitro T-cell priming assay based on repeated stimulations of CD8+ T cells with artificial antigen presenting cells (aAPCs) loaded with peptide/MHC complexes and anti-CD28 antibody.
In order to perform in vitro stimulations by artificial antigen presenting cells loaded with peptide-MHC complex (pMHC) and anti-CD28 antibody, the inventors first isolated CD8+ T cells from fresh HLA-A*02 leukapheresis products via positive selection using CD8 microbeads (Miltenyi Biotec, Bergisch-Gladbach, Germany) of healthy donors obtained from the University clinics Mannheim, Germany, after informed consent.
PBMCs and isolated CD8+ lymphocytes were incubated in T-cell medium (TCM) until use consisting of RPMI-Glutamax (Invitrogen, Karlsruhe, Germany) supplemented with 10% heat inactivated human AB serum (PAN-Biotech, Aidenbach, Germany), 100 U/ml Penicillin/100 μg/ml Streptomycin (Cambrex, Cologne, Germany), 1 mM sodium pyruvate (CC Pro, Oberdorla, Germany), 20 μg/ml Gentamycin (Cambrex). 2.5 ng/ml IL-7 (PromoCell, Heidelberg, Germany) and 10 U/ml IL-2 (Novartis Pharma, Nürnberg, Germany) were also added to the TCM at this step.
Generation of pMHC/anti-CD28 coated beads, T-cell stimulations and readout was performed in a highly defined in vitro system using four different pMHC molecules per stimulation condition and 8 different pMHC molecules per readout condition.
The purified co-stimulatory mouse IgG2a anti human CD28 Ab 9.3 (Jung et al., 1987) was chemically biotinylated using Sulfo-N-hydroxysuccinimidobiotin as recommended by the manufacturer (Perbio, Bonn, Germany). Beads used were 5.6 μm diameter streptavidin coated polystyrene particles (Bangs Laboratories, Illinois, USA).
800.000 beads/200 μl were coated in 96-well plates in the presence of 4×12.5 ng different biotin-pMHC, washed and 600 ng biotin anti-CD28 were added subsequently in a volume of 200 μl. Stimulations were initiated in 96-well plates by co-incubating 1×10^6 CD8+ T cells with 2×10^5 washed coated beads in 200 μl TCM supplemented with 5 ng/ml IL-12 (PromoCell) for 3 days at 37° C. Half of the medium was then exchanged by fresh TCM supplemented with 80 U/ml IL-2 and incubating was continued for 4 days at 37° C. This stimulation cycle was performed for a total of three times. For the pMHC multimer readout using 8 different pMHC molecules per condition, a two-dimensional combinatorial coding approach was used as previously described (Andersen et al., 2012) with minor modifications encompassing coupling to 5 different fluorochromes. Finally, multimeric analyses were performed by staining the cells with Live/dead near IR dye (Invitrogen, Karlsruhe, Germany), CD8-FITC antibody clone SK1 (BD, Heidelberg, Germany) and fluorescent pMHC multimers. For analysis, a BD LSRII SORP cytometer equipped with appropriate lasers and filters was used. Peptide specific cells were calculated as percentage of total CD8+ cells. Evaluation of multimeric analysis was done using the FlowJo software (Tree Star, Oregon, USA). In vitro priming of specific multimer+CD8+ lymphocytes was detected by comparing to negative control stimulations.

For the substance “50 (VLANRVAVV; listed as Homo sapiens) [compound 50]”, the Peptide exchange entry in the assay with HLA-A*02:01 is given as “+++ (>50 = +++)”. Further, in assay [1], the “Wells positive [%]” value is on record as “++++ (>=70% = ++++)”.

On to “114 (IITKDLFQV; listed as Homo sapiens) [compound 114]”, for which the Peptide exchange entry with HLA-A*02:01 is “+++ (>50 = +++)”. In addition, the “Wells positive [%]” value in assay [1] is “+ (<20% = +)”.

Consider “146 (YLARIQGFQV; listed as Homo sapiens) [compound 146]”, for which the Peptide exchange result in the assay with HLA-A*02:01 is “++++ (>75% = ++++)”. Also, the “Wells positive [%]” value in assay [1] was “++ (20%-49% = ++)”.

As to “6 (SIVDFLITA; listed as Homo sapiens) [compound 6]”, the Peptide exchange result in the assay with HLA-A*02:01 is reported as “+++ (>50 = +++)”. In addition, in assay [1], the “Wells positive [%]” value is “+ (<20% = +)”.

With “27 (STTNGGILTV; listed as Homo sapiens) [compound 27]”, the Peptide exchange result with HLA-A*02:01 is recorded as “+++ (>50 = +++)”. Moreover, the “Wells positive [%]” value in assay [1] is reported as “+ (<20% = +)”.

Take “148 (TLGVIPESV; listed as Homo sapiens) [compound 148]”: the Peptide exchange result with HLA-A*02:01 is recorded as “++++ (>75% = ++++)”. Moreover, the “Wells positive [%]” value in assay [1] is listed as “+ (<20% = +)”.

As to “16 (ILGPQGNTI; listed as Homo sapiens) [compound 16]”, the Peptide exchange result with HLA-A*02:01 is reported as “+++ (>50 = +++)”. Moreover, the “Wells positive [%]” value in assay [1] is recorded as “+ (<20% = +)”.

With “14 (GLAGPVRGV; listed as Homo sapiens) [compound 14]”, the Peptide exchange result with HLA-A*02:01 is given as “+++ (>50 = +++)”. The “Wells positive [%]” value in assay [1] is on record as “+ (<20% = +)”.

“59 (WLSTSIPEA; listed as Homo sapiens) [compound 59]”: the Peptide exchange result in the assay with HLA-A*02:01 was “++++ (>75% = ++++)”. Besides, the “Wells positive [%]” value in assay [1] is listed as “+ (<20% = +)”.

On to “10 (GLWHGMFANV; listed as Homo sapiens) [compound 10]”, for which the Peptide exchange entry with HLA-A*02:01 is reported as “++++ (>75% = ++++)”. For the same substance, the “Wells positive [%]” value in assay [1] is on record as “++ (20%-49% = ++)”.

Take “17 (RLSQLEGVNV; listed as Homo sapiens) [compound 17]”: the Peptide exchange result with HLA-A*02:01 is on record as “+++ (>50 = +++)”. In addition, in assay [1], the “Wells positive [%]” value is “+ (<20% = +)”.
